In patent US20160145321A1 (CRUCELL HOLLAND B V, published 2016):

How the values were obtained:
[1] = target: T1, Recombinant RSV attachment protein (G protein) corresponding to RSV A/Long (Respiratory syncytial virus A/Long, UniProt P20895 65-298); experiment: ELISA, coated recombinant protein (Example 6)
T1 construct: also called RSV Ga; Ga
T1 sequence: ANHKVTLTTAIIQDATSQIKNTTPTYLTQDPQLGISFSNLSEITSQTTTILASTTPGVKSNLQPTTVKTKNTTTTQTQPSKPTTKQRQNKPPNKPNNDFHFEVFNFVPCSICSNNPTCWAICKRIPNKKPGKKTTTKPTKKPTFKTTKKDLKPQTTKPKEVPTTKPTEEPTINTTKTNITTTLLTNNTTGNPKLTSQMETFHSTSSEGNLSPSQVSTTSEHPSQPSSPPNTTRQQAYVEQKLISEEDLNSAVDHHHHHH

[2] = target: T2, Recombinant RSV attachment protein (G protein) corresponding to RSV B/B1 (Respiratory syncytial virus B/B1, UniProt O36633 65-299); experiment: ELISA, coated recombinant protein (Example 6)
T2 sequence: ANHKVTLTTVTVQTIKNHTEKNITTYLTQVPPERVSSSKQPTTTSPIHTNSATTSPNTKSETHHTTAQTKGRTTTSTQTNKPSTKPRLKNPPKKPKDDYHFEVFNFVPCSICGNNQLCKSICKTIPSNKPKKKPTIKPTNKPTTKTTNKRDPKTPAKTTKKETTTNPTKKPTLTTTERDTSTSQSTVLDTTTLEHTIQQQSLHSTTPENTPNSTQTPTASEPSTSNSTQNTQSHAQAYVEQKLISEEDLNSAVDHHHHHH

[3] = target: T3, G protein of RSV B/18537 (virus, ATCC Cat. No. VR-1580) (Respiratory syncytial virus B/18537, UniProt P20896 1-292); experiment: cell-based or functional assay
T3 sequence: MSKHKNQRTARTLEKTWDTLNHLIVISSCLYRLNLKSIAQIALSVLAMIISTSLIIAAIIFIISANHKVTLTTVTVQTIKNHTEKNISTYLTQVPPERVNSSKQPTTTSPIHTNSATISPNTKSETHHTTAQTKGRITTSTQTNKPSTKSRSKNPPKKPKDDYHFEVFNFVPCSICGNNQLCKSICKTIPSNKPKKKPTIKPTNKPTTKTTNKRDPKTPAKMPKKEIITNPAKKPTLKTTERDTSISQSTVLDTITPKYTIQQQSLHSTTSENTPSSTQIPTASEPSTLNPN

[4] = target: T4, G protein of RSV A/A2 (virus, ATCC Cat. No. VR-1540) (Respiratory syncytial virus A/A2, UniProt P03423 1-298); experiment: cell-based or functional assay
T4 sequence: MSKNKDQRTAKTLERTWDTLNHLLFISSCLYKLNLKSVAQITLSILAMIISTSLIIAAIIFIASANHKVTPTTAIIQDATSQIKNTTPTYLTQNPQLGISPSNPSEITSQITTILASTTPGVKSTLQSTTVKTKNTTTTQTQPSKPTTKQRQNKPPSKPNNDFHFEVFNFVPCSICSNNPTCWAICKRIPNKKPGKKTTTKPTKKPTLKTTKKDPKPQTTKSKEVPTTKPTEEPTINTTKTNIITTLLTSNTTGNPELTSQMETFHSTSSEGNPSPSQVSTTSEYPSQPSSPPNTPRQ

[5] = target: T5, G protein of RSV A/Long (virus, ATCC Cat. No. VR-26) (Respiratory syncytial virus A/Long, UniProt P20895 1-298); experiment: cell-based or functional assay
T5 sequence (looked up): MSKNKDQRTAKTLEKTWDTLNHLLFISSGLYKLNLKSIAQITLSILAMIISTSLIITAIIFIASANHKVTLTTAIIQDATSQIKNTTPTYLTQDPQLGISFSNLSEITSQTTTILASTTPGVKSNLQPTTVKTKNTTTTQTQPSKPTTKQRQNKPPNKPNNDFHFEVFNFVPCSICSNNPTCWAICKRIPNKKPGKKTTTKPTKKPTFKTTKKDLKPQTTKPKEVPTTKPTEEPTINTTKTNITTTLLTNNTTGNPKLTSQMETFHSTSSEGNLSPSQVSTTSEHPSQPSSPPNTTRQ

Row | Binder | binding result [1] | binding result [2] | Neutralization IC50 (plaque reduction assay, Vero cells) [3] [µg/mL] | Neutralization IC50 (plaque reduction assay, Vero cells) [4] [µg/mL] | Neutralization IC50 (plaque reduction assay, Vero cells) [5] [µg/mL]
1 | CB028.2 (antibody, V domains shown) VH: QVQLVQSGAEVKKPGASVKVSCKASGYTFTTYGITWVRQAPGQGLEWMGWISGDSDNTNYAQNLQGRVTLTTDISTRTAYMELRSLKPDDTAMYYCARALAKWYCSSSSCFCGGGSCYSDYWGQGTLVTVSS VL: DIQMTQSPSSLSASVGDRVTITCRASQGMSNYLNWYQQKPGKAPELLIYAASTLQSGVPSRFSGSGSGTDFTLTINSLQPEDFATYFCQQSFSTPLTFGGGTKVEIK | binds | binds | 0.0196 | – | –
2 | CB048.3 (antibody, V domains shown) VH: QVQLVESGGGVVQPGRSLRLSCAASGFTFSNHGMHWVRQAPGKGLEWVAVISYDGNKKYYADSVKGRFTVSRDNSKNTLSLQMDSLRAEDTAIYYCAKTTFYFDDSNYYEYLDYWGQGTLVTVSS VL: DIQLTQSPSFLSASVGDRVTITCRASQGIRSYLAWYQQKPGKAPKLLIYAASTLQSGVPSRFSGGGSGTEFTLTISSLQPEDSATYYCQQLNTSPPYTFGQGTKLEIK | binds | binds | – | 0.0167 | –
3 | CB058.1 (antibody, V domains shown) VH: EVQLVESGGGLVQPGGSLRLSCVASGFTFSSYAMSWVRQAPGKGLEWVSAIRGSVDNTYYADSVKGRFTISRDNSKNTLYLQMNSLRVEDTAVYYCAKDPALYCSGETCFSDLTDWGQGTLVTVSS VL: DIQMTQSPSSLSASVGDRVTITCRASQGINNYLAWFQQKPGKAPKSLIYAASTLPSGVPSRFSGSGSGTDFTLTISSLQPEDSATYFCQHYIRYPHTFGQGTKLEIK | binds | binds | – | 0.0144 | –
4 | CB003.1 (antibody, V domains shown) VH: QVQLVQSGPELRKPGASVTVSCKASGYTFTTYYIHWVRQAPGGGLDWMGMINTGSGVTSYAQKFQGRVAMTRDTSTSTVFMELSSLRFEDTALYYCARMYSGSWYPFDYWGQGALVTVSS VL: EIVLTQSPGTLSLSPGERATLSCRASQNINGNYLAWYQQKPGLAPRLLIYEASSRATGIPDRFSGSGSGTDFTLTISSLEPEDFGVYYCQQYGTSPFFTFGPGTKVDIK | – | – | 0.0246 | 0.0315 | 0.016
5 | CB010.7 (antibody, V domains shown) VH: QVQLVESGGGVVQPGRSLRLSCAASGFTFNTHGMHWVRQAPGKGLEWVAVMSYDGTKKYHADSVKGRFTISRDNSKNTLYLQMNSLRVEDTAIYYCAKVGELRSFDWLLADGTAYYYYGMDVWGQGTTVTVSS VL: not shown | – | binds | 0.0141 | 0.0165 | 0.012
6 | CB002.1 (antibody, V domains shown, also called CB2.1) VH: QVQLQESGPRLVKPSETLSLTCTVSGGSTSSYFWNWIRQPPGKGLEWIGYIYGSGSADYNPSLKSRVTISIDTSKTQFSLKLTSVTAADTAVYYCARSGFCTNDACYRRGSWFDPWGQGTLVTVSS VL: DIQMTQSPSSLSASVGDRVTITCRASQSIDNYLNWYQQKPGKAPKLLIYAASSLQSGVPSRFSGSGSGTDFTLTVSSLHPEDFATYYCQQSYSTLTWTFGQGTKVEIK | binds | binds | – | 0.0355 | –
